# Test results taken from patent US20170247434A1 (DEUTSCHES KREBSFORSCHUNGSZENTRUM, published 2017).
# T1: Norovirus GII.10 Vietnam026 virus-like particles (VLPs) (Norovirus GII.10 Vietnam026)
# T1 chain: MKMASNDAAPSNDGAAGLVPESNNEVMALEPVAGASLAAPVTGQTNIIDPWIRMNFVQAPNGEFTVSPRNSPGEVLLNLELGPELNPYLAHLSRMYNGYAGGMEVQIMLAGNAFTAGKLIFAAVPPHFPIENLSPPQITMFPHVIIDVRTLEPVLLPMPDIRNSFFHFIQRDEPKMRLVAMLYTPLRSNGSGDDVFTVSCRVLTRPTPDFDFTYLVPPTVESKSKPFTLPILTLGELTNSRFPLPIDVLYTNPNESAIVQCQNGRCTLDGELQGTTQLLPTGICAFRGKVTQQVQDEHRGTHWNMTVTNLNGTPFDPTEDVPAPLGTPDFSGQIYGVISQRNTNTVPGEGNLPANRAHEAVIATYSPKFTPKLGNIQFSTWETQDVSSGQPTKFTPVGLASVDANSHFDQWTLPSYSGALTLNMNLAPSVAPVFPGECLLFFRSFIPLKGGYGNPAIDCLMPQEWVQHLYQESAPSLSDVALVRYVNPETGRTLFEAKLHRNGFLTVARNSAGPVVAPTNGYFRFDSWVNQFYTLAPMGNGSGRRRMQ
# T2: Norovirus GII.4 NSW-2012 virus-like particles (VLPs) (Norovirus GII.4 NSW-2012, UniProt P54635 1-538)
# T2 chain: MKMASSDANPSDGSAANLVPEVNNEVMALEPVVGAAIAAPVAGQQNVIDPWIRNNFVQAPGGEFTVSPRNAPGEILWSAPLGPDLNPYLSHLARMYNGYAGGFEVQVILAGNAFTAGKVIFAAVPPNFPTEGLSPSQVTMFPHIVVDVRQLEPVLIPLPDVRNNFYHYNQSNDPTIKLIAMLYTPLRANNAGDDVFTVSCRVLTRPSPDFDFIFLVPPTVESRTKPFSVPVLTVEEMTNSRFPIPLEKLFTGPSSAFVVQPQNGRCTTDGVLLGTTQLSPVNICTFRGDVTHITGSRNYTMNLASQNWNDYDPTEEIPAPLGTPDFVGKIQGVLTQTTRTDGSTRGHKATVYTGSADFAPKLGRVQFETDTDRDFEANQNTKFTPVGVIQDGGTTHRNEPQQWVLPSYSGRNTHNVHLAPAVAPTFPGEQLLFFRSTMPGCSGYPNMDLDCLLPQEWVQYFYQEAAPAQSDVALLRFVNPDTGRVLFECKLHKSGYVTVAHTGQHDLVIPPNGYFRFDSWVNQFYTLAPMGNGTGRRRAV
# T3: Norovirus GI.1 Norwalk virus virus-like particles (VLPs) (Norovirus GI.1 Norwalk virus, UniProt Q83884 1-530)
# T3 construct: also called GI.1 VLPs; the member of genogroup I included in this study
# T3 sequence: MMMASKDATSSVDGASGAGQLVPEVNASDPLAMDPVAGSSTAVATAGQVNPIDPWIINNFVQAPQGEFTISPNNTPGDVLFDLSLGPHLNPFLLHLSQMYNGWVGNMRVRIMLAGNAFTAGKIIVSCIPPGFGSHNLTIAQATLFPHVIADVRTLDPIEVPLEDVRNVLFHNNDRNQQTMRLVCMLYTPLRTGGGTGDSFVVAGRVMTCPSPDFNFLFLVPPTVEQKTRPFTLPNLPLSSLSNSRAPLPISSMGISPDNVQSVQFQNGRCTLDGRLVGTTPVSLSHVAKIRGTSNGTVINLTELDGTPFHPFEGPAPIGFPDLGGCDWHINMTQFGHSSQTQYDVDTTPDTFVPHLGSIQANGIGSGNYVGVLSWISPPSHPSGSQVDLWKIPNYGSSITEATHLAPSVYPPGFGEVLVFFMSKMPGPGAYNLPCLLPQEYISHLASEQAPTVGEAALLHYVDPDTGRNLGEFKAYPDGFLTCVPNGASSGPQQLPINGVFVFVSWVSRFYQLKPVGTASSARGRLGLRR
# B1: Nano-85 (VHH)
# VHH: DVQLVESGGGLVQPGGSLRLSCAASGSIFSIYAMGWYRQAPGKQRELVASISSGGGTNYADSVKGRFTISGDNAKNTVYLQMNSLKPEDTAVYYCKREDYSAYAPPSGSRGRGTQVTVSS
# notes: also called the Nanobody; single-domain antibody (VHH) of the invention
# How the values were obtained:
# [1] = biological target: T1, Norovirus GII.10 Vietnam026 virus-like …
# [2] = biological target: T2, Norovirus GII.4 NSW-2012 virus-like …
# [3] = biological target: T3, Norovirus GI.1 Norwalk virus virus-like …; test: direct ELISA; plates coated with VLPs; His-tagged nanobody serially diluted from ˜10 µM; anti-His HRP
# [4] = biological target: T2, Norovirus GII.4 NSW-2012 virus-like …; test: direct ELISA; plates coated with 2 µg/ml VLPs; His-tagged nanobody serially diluted from ˜10 µM; anti-His HRP
# [5] = biological target: T4, Norovirus GII.12 Hiro virus-like particles (VLPs) (Norovirus GII.12 Hiro); test: as above
# T4 construct: also called GII.12 VLPs
# [6] = biological target: T5, P domain of norovirus GII.10 (Vietnam026) (Norovirus GII.10 Vietnam026); test: direct ELISA; plates coated with 7 µg/ml GII.10 P domain; His-tagged nanobody serially diluted from ˜10 µM; anti-His HRP
# T5 construct: domain: P domain; also called GII.10 P domain; GII.10 P domains
# [7] = biological target: T1, Norovirus GII.10 Vietnam026 virus-like …; test: direct ELISA; plates coated with 2 µg/ml VLPs; His-tagged nanobody serially diluted from ˜10 µM; anti-His HRP; detection limit OD 0.15
binder,measurement,setting,value
B1,IC50,[1],< 10 µg/mL
same,IC50,[2],< 10 µg/mL
same,dilution at which VLPs were detected,[3],4000 fold dilution
same,dilution at which VLPs were detected,[4],32000 fold dilution
same,dilution at which VLPs were detected,[5],32000 fold dilution
same,dilution at which P domains were detected,[6],17800 fold dilution
same,dilution at which VLPs were detected,[7],64000 fold dilution
